# In patent US20240116985A1 (published 2024):
# Starred links: 1 amine or outer side, 2 acyl side, 3 side chain; linkers in the order of their positions; H or OH if unused. Positions of bridges follow the written chain, without caps; N, C: chain ends. Non-standard residues stand in square brackets, D forms with d. Primed or numbered codes have the meaning given here. PyrS(3) = (S)-1-((allyloxy)carbonyl)-3-aminopyrrolidine-3-carboxylic acid, stapling residue, C=CCOC(=O)N1CC[C@@](N[*:1])(C(=O)[*:2])C1; PyrS″ = (S)-1-((allyloxy)carbonyl)-3-aminopyrrolidine-3-carboxylic acid (stapling residue), C=CCOC(=O)N1CC[C@@](N[*:1])(C(=O)[*:2])C1; PyrS = (S)-1-((allyloxy)carbonyl)-3-aminopyrrolidine-3-carboxylic acid, C=CCOC(=O)N1CC[C@@](N[*:1])(C(=O)[*:2])C1; Phe(4-CONH2) = NC(=O)c1ccc(C[C@H](N)C(=O)O)cc1; Phe(3,4-F2) = N[C@@H](Cc1ccc(F)c(F)c1)C(=O)O; Phe(3-OMe) = COc1cccc(C[C@H](N)C(=O)O)c1; Phe(3-F) = N[C@@H](Cc1cccc(F)c1)C(=O)O; Ala(cPent) = N[C@@H](CC1CCCC1)C(=O)O; hPhe = N[C@@H](CCc1ccccc1)C(=O)O; 2Pal = N[C@@H](Cc1ccccn1)C(=O)O; 3Pal = N[C@@H](Cc1cccnc1)C(=O)O; 4Pal = N[C@@H](Cc1ccncc1)C(=O)O; R8 = C=CCCCCCC[C@@](C)(N)C(=O)O; Cha = N[C@@H](CC1CCCCC1)C(=O)O; Nle = CCCC[C@H](N)C(=O)O
# T1: full-length beta-Catenin (Uniprot ID P35222) (Homo sapiens (Human), UniProt P35222 2-781)
# T1 construct: also called B-Catenin; bCat
# T1 sequence: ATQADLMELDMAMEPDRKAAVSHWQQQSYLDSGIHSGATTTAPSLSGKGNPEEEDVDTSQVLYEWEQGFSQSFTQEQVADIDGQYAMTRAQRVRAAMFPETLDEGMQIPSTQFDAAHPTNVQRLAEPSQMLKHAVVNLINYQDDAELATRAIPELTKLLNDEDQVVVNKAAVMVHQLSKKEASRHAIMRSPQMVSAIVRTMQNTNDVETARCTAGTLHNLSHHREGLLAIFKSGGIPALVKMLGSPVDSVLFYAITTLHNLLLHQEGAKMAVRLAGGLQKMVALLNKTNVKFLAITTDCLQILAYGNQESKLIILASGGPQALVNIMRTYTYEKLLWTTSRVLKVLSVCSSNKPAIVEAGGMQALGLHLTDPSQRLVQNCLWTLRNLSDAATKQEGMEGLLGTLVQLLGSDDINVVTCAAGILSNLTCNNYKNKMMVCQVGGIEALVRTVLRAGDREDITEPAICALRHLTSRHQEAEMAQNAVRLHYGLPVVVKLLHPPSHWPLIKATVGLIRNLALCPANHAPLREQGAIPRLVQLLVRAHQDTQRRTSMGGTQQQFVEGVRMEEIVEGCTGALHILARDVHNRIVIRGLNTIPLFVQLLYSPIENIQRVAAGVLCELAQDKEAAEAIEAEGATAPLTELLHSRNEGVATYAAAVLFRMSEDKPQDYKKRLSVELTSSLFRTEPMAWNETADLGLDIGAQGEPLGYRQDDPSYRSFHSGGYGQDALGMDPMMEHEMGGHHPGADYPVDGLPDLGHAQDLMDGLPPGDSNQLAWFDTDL
# T2: full-length beta-Catenin (Uniprot ID P35222) (Homo sapiens (Human), UniProt P35222 2-781)
# T2 construct: Used full-length in both the FP and the AlphaScreen assay; also called B-Catenin; bCat
# T2 sequence: T1 sequence
# B1: I-93 (peptide)
# peptide: Ac-FDA[R8]DDAAFV[PyrS″][Ala(cPent)]WQ-NH2
# modifications: staple 4-11
# notes: Stapled peptide composition; same description as I-94, separate earlier-eluting HPLC peak (staple isomer)
# B2: I-92 (peptide)
# peptide: Ac-FDA[R8]DDAA[Phe(4-CONH2)]V[PyrS″]FWQ-NH2
# modifications: staple 4-11
# notes: Stapled peptide composition; same description as I-91, separate later-eluting HPLC peak (staple isomer)
# B3: I-91 (peptide)
# peptide: Ac-FDA[R8]DDAA[Phe(4-CONH2)]V[PyrS″]FWQ-NH2
# modifications: staple 4-11
# notes: Stapled peptide composition; same description as I-92, separate earlier-eluting HPLC peak (staple isomer)
# B4: I-122 (peptide)
# peptide: Ac-FDA[R8]DDAAFV[PyrS″]DWQ-NH2
# modifications: staple 4-11; not fully specified; printed as Ac-Phe-Asp-Ala-R8-Asp-Asp-Ala-Ala-Phe-Val-PyrS-Asp-Trp-Gln-NH2
# notes: Stapled peptide composition
# B5: I-99 (peptide)
# peptide: Ac-FDA[R8]DFAAFV[PyrS]FWQ-NH2
# modifications: staple 4-11; not fully specified; printed as Ac-Phe-Asp-Ala-R8-Asp-Phe-Ala-Ala-Phe-Val-PyrS-Phe-Trp-Gln-NH2
# notes: Stapled peptide composition; same description as I-100, separate earlier-eluting HPLC peak (staple isomer)
# B6: I-100 (peptide)
# peptide: Ac-FDA[R8]DFAAFV[PyrS″]FWQ-NH2
# modifications: staple 4-11
# notes: Stapled peptide composition; same description as I-99, separate later-eluting HPLC peak (staple isomer)
# B7: I-121 (peptide)
# peptide: Ac-FDA[R8]DDAAFV[PyrS(3)]DWQ-NH2
# modifications: staple 4-11
# notes: Stapled peptide composition
# B8: I-103 (peptide)
# peptide: Ac-FDA[R8]DDAA[Phe(3-OMe)]V[PyrS″]FWQ-NH2
# modifications: staple 4-11; not fully specified; printed as Ac-Phe-Asp-Ala-R8-Asp-Asp-Ala-Ala-3OMeF-Val-PyrS-Phe-Trp-Gln-NH2
# notes: Stapled peptide composition
# B9: I-95 (peptide)
# peptide: Ac-FDA[R8]DDAA[Ala(cPent)]V[PyrS″]FWQ-NH2
# modifications: staple 4-11
# notes: Stapled peptide composition; same description as I-96, separate earlier-eluting HPLC peak (staple isomer)
# B10: I-101 (peptide)
# peptide: Ac-FDA[R8]DDAAFV[PyrS″][Phe(3-OMe)]WQ-NH2
# modifications: staple 4-11; not fully specified; printed as Ac-Phe-Asp-Ala-R8-Asp-Asp-Ala-Ala-Phe-Val-PyrS-3OMeF-Trp-Gln-NH2
# notes: Stapled peptide composition
# B11: I-94 (peptide)
# peptide: Ac-FDA[R8]DDAAFV[PyrS][Ala(cPent)]WQ-NH2
# modifications: staple 4-11
# notes: Stapled peptide composition; same description as I-93, separate later-eluting HPLC peak (staple isomer)
# B12: I-102 (peptide)
# peptide: Ac-FDA[R8]DDAAFV[PyrS″][Phe(3-OMe)]WQ-NH2
# modifications: staple 4-11; not fully specified; printed as Ac-Phe-Asp-Ala-R8-Asp-Asp-Ala-Ala-Phe-Val-PyrS-3OMeF-Trp-Gln-NH2
# notes: Stapled peptide composition
# B13: I-97 (peptide)
# peptide: Ac-FDA[R8]D[hPhe]AAFV[PyrS″]FWQ-NH2
# modifications: staple 4-11; not fully specified; printed as Ac-Phe-Asp-Ala-R8-Asp-hPhe-Ala-Ala-Phe-Val-PyrS-Phe-Trp-Gln-NH2
# notes: Stapled peptide composition; same description as I-98, separate earlier-eluting HPLC peak (staple isomer)
# B14: I-98 (peptide)
# peptide: Ac-FDA[R8]D[hPhe]AAFV[PyrS″]FWQ-NH2
# modifications: staple 4-11; not fully specified; printed as Ac-Phe-Asp-Ala-R8-Asp-hPhe-Ala-Ala-Phe-Val-PyrS-Phe-Trp-Gln-NH2
# notes: Stapled peptide composition; same description as I-97, separate later-eluting HPLC peak (staple isomer)
# B15: I-96 (peptide)
# peptide: Ac-FDA[R8]DDAA[Ala(cPent)]V[PyrS]FWQ-NH2
# modifications: staple 4-11
# notes: Stapled peptide composition; same description as I-95, separate later-eluting HPLC peak (staple isomer)
# B16: I-75 (peptide)
# peptide: Ac-FDA[R8]DDAA[Cha]V[PyrS″]FWQ-NH2
# modifications: staple 4-11; not fully specified; printed as Ac-Phe-Asp-Ala-R8-Asp-Asp-Ala-Ala-Cha-Val-PyrS-Phe-Trp-Gln-NH2
# notes: Stapled peptide; also called Ac-Phe-Asp-Ala-R8-Asp-Asp-Ala-Ala-Cha-Val-PyrS-Phe-Trp-Gln-NH2
# B17: I-79 (peptide)
# peptide: Ac-FDA[R8]DDAA[Phe(3,4-F2)]V[PyrS]FWQ-NH2
# modifications: staple 4-11
# notes: Stapled peptide; also called Ac-Phe-Asp-Ala-R8-Asp-Asp-Ala-Ala-34FF-Val-PyrS-Phe-Trp-Gln-NH2
# B18: I-82 (peptide)
# peptide: Ac-FDA[R8]DDAAFV[PyrS″][3Pal]WQ-NH2
# modifications: staple 4-11
# notes: Stapled peptide; also called Ac-Phe-Asp-Ala-R8-Asp-Asp-Ala-Ala-Phe-Val-PyrS-3PyrA-Trp-Gln-NH2
# B19: I-90 (peptide)
# peptide: Ac-FDA[R8]DDAAFV[PyrS″][Phe(4-CONH2)]WQ-NH2
# modifications: staple 4-11
# notes: Stapled peptide; also called Ac-Phe-Asp-Ala-R8-Asp-Asp-Ala-Ala-Phe-Val-PyrS-4CBMF-Trp-Gln-NH2
# B20: I-76 (peptide)
# peptide: Ac-FDA[R8]DDAA[Nle]V[PyrS(3)]FWQ-NH2
# modifications: staple 4-11
# notes: Stapled peptide; also called Ac-Phe-Asp-Ala-R8-Asp-Asp-Ala-Ala-nLeu-Val-PyrS-Phe-Trp-Gln-NH2
# B21: I-83 (peptide)
# peptide: Ac-FDA[R8]DDAAFV[PyrS][3Pal]WQ-NH2
# modifications: staple 4-11
# notes: as for B18
# B22: I-84 (peptide)
# peptide: Ac-FDA[R8]DDAAFV[PyrS″][4Pal]WQ-NH2
# modifications: staple 4-11; not fully specified; printed as Ac-Phe-Asp-Ala-R8-Asp-Asp-Ala-Ala-Phe-Val-PyrS-4PyrA-Trp-Gln-NH2
# notes: Stapled peptide; also called Ac-Phe-Asp-Ala-R8-Asp-Asp-Ala-Ala-Phe-Val-PyrS-4PyrA-Trp-Gln-NH2
# B23: I-87 (peptide)
# peptide: Ac-FDA[R8]DDAA[3Pal]V[PyrS″]FWQ-NH2
# modifications: staple 4-11; not fully specified; printed as Ac-Phe-Asp-Ala-R8-Asp-Asp-Ala-Ala-3PyrA-Val-PyrS-Phe-Trp-Gln-NH2
# notes: Stapled peptide; also called Ac-Phe-Asp-Ala-R8-Asp-Asp-Ala-Ala-3PyrA-Val-PyrS-Phe-Trp-Gln-NH2
# B24: I-89 (peptide)
# peptide: Ac-FDA[R8]DDAAFV[PyrS″][Phe(4-CONH2)]WQ-NH2
# modifications: staple 4-11; not fully specified; printed as Ac-Phe-Asp-Ala-R8-Asp-Asp-Ala-Ala-Phe-Val-PyrS-4CBMF-Trp-Gln-NH2
# notes: as for B19
# B25: I-77 (peptide)
# peptide: Ac-FDA[R8]DDAA[Phe(3-F)]V[PyrS]FWQ-NH2
# modifications: staple 4-11
# notes: Stapled peptide; also called Ac-Phe-Asp-Ala-R8-Asp-Asp-Ala-Ala-3FF-Val-PyrS-Phe-Trp-Gln-NH2
# B26: I-88 (peptide)
# peptide: Ac-FDA[R8]DDAA[3Pal]V[PyrS″]FWQ-NH2
# modifications: staple 4-11; not fully specified; printed as Ac-Phe-Asp-Ala-R8-Asp-Asp-Ala-Ala-3PyrA-Val-PyrS-Phe-Trp-Gln-NH2
# notes: as for B23
# B27: I-74 (peptide)
# peptide: Ac-FDA[R8]DDAA[Cha]V[PyrS″]FWQ-NH2
# modifications: staple 4-11; not fully specified; printed as Ac-Phe-Asp-Ala-R8-Asp-Asp-Ala-Ala-Cha-Val-PyrS-Phe-Trp-Gln-NH2
# notes: as for B16
# B28: I-81 (peptide)
# peptide: Ac-FDA[R8]DDAAFV[PyrS″][2Pal]WQ-NH2
# modifications: staple 4-11
# notes: Stapled peptide; also called Ac-Phe-Asp-Ala-R8-Asp-Asp-Ala-Ala-Phe-Val-PyrS-2PyrA-Trp-Gln-NH2
# B29: I-85 (peptide)
# peptide: Ac-FDA[R8]DDAAFV[PyrS][4Pal]WQ-NH2
# modifications: staple 4-11; not fully specified; printed as Ac-Phe-Asp-Ala-R8-Asp-Asp-Ala-Ala-Phe-Val-PyrS-4PyrA-Trp-Gln-NH2
# notes: as for B22
# B30: I-86 (peptide)
# peptide: Ac-FDA[R8]DDAA[2Pal]V[PyrS]FWQ-NH2
# modifications: staple 4-11
# notes: Stapled peptide; also called Ac-Phe-Asp-Ala-R8-Asp-Asp-Ala-Ala-2PyrA-Val-PyrS-Phe-Trp-Gln-NH2
# B31: I-80 (peptide)
# peptide: Ac-FDA[R8]DDAAFV[PyrS][2Pal]WQ-NH2
# modifications: staple 4-11
# notes: as for B28
# Target: T1, full-length beta-Catenin (Uniprot ID …)
# Assay: Alphascreen competition; biotin-TCF4(10-53) probe with full-length beta-catenin
# Procedure: (§1) Equal volume of the titrated peptide was added to the plate and incubated for 15 minutes at 20° C. Then 4 uL of donor and 4 uL acceptor beads at 10 ug/mL were added to the plate, for a 16 uL reaction pool and protected from light for 60 minutes at 20° C. prior to read. Reads were performed on a CLARIOstar plate reader (BMG Labtech) in duplicate, and data were fitted to a 1:1 binding model with hill slope using an in-house script. All provided concentrations are final concentrations.
row,Binder,EC50 [µM]
1,B1,≥ 10
2,B2,9.15
3,B3,4.72
4,B4,≥ 10
5,B5,≥ 10
6,B6,9.23
7,B7,4.46
8,B8,4.95
9,B9,8.66
10,B10,≥ 10
11,B11,7.01
12,B12,≥ 10
13,B13,7.01
14,B14,≥ 10
15,B15,≥ 10

# Target: T2, full-length beta-Catenin (Uniprot ID …)
# Assay: AlphaScreen competition; full-length beta-catenin, biotin-TCF4(10-53) probe
# Procedure: as §1
row,Binder,EC50 [µM]
1,B16,≥ 10
2,B17,3.97
3,B18,≥ 10
4,B19,≥ 10
5,B20,≥ 10
6,B21,≥ 10
7,B22,≥ 10
8,B23,≥ 10
9,B24,5.64
10,B25,≥ 10
11,B26,≥ 10
12,B27,≥ 10
13,B28,9.78
14,B29,≥ 10
15,B30,≥ 10
16,B31,≥ 10
